Measurements taken from the Human Domainome abundance scans (Beltran et al. 2025).

B1: COUP transcription factor 1, residues 83 to 159; numbered along this chain, P10589 (parent)
chain: HIECVVCGDKSSGKHYGQFTCEGCKSFFKRSVRRNLTYTCRANRNCPIDQHHRNQCQYCRLKKCLKVGMRREAVQRG

Variants of: B1
Test: abundance fitness (aPCA) (normalised: wild type 0, dead -1); higher = more abundant; growth selection in yeast, the domain comes from the species named
Conditions: Homo sapiens

Abundance fitness: each site, then its substitutions
S12: C -0.578 | P -0.094 | K -0.194 | H -0.096 | L -0.247 | V 0.076 | Q 0.007 | M -0.113 | E 0.1 | N 0.003 | I -0.027 | T 0.165 | Y -0.489 | W -0.675 | A -0.018 | R -0.205 | G 0.021
G8: K 0.165 | V -0.791 | H -0.22 | A 0.016 | D 0.177 | C -0.182 | W -0.218 | M -0.078 | N -0.045 | Q 0.146 | S 0.077 | L 0.042 | R 0.014 | T -0.237
H15: M 0.548 | G -0.101 | K -0.857 | A -0.029 | C -0.362 | Q -0.052 | P 0.125 | N 0.148 | D -0.226 | R -0.364 | Y -0.144 | L 0.001 | W 0.196 | V -0.135 | E 0.202 | S -0.212 | T -0.28
C21: Q -0.371 | E -0.929 | G -0.744 | Y -0.974 | R -0.845 | V -1.09 | H -0.775 | L -0.9 | P -0.923 | N -0.61 | I -0.999 | S -0.757 | K -0.818 | T -0.742 | D -1.03 | M -1.01 | A -0.707
G23: L -0.544 | R -0.081 | Y 0.152 | T -0.009 | V -0.338 | D 0.418 | S -0.174 | W 0.189 | K -0.044 | Q 0.031 | H 0.287 | C 0.001 | F 0.044 | A -0.153
T20: M -0.079 | E -0.116 | N -0.191 | A -0.051 | S 0.067 | Q -0.382 | L -0.084 | D -1.13 | V 0.156 | I 0.232 | F -0.106 | Y -0.165 | G -0.242 | K -0.868 | H -0.541 | P -0.402 | C 0.163 | W -0.058
K25: T 0.011 | S 0.067 | M 0.177 | C 0.087 | F 0.168 | G 0.064 | P -0.492 | L -0.031 | W 0.003 | V 0.025 | R 0.095 | D 0.183 | E 0.183 | A 0.09 | H 0.283
C24: M -1.08 | N -0.702 | I -0.509 | E -1.1 | K -0.697 | W -0.707 | P -0.609 | Q -1.04 | T -0.885 | Y -0.319 | S -0.901 | A -0.841 | D -0.335 | R -0.795 | L -0.841
V6: S -0.819 | Q -0.802 | W -0.545 | I -0.074 | P -0.705 | L -0.889 | T -0.743 | Y -0.439 | M -1.06 | K -1.09 | R -0.974
E22: F -0.226 | H -0.504 | Q 0.181 | V -0.064 | D -0.025 | M 0.01 | L -0.089 | P -0.038 | R -0.504 | Y -0.342 | W -0.061 | I -0.495 | G 0.089
F19: L -0.129 | G -0.53 | E 0.166 | V -0.269 | I -0.279 | A -0.101 | C -0.216 | S 0.032 | Q 0.125 | H -0.037 | T -0.094 | W -0.01 | M -0.149 | R -0.098 | Y 0.352 | D -0.052
Q18: Y -0.389 | R -0.041 | V 0.261 | C 0.187 | A 0.098 | G -0.061 | M 0.067 | K -0.031 | E 0.143 | D 0.08 | S -0.028 | P 0.079 | L 0.01 | W -0.459 | I -0.051 | F 0.151 | T -0.137 | N -0.345
Y16: R -0.31 | G -0.157 | N -0.539 | Q 0.096 | I -0.297 | L -0.152 | W 0.132 | S -0.047 | T -0.274 | K -0.209 | P -0.355 | D 0.111 | V -0.151 | F 0.201 | E -0.05 | C 0.074 | A -0.441 | M -0.154
S26: H -0.137 | I -0.611 | R -0.019 | F -0.275 | Q 0.247 | A -0.184 | L -0.035 | C -0.127 | E 0.144 | K 0.321 | P -0.812 | M 0.298 | G 0.238 | D -0.32
K10: A -0.332 | W -0.233 | C -0.105 | H -0.288 | L -0.313 | G -0.114 | S -0.153 | R -0.214 | Y 0.045 | F -0.029 | Q 0.022 | M -0.067 | T 0.056 | P 0.051 | V -0.235 | D 0.16 | E -0.104
G17: M -0.703 | P -0.572 | L -0.437 | R -0.421 | S -0.191 | I -0.515 | K -0.452 | E -0.156 | Y -0.396 | V -0.421 | C -0.274 | N -0.165 | Q 0.044 | T -0.319 | H -0.459 | D -0.072 | A -0.358
S11: A -0.184 | L -0.281 | G -0.071 | M -0.101 | C 0.182 | Y 0.177 | R -0.377 | E -0.314 | H 0.314 | D -0.28 | V -0.399 | Q 0.01 | N -0.155 | F 0.085 | W -0.236 | T -0.044
G13: N -0.068 | H -0.306 | P -0.175 | T -0.115 | E 0.089 | S -0.193 | F -0.206 | L -0.358 | M -0.049 | C -0.95 | A 0.171 | W -1.04 | V -0.288 | Q 0.074 | R -0.243 | D 0.053 | I -0.199
C7: Y -0.268 | L -0.843 | R -0.802 | E -0.659 | G -0.733 | P -1.17 | D -0.867 | M -0.84 | S -0.803 | A -0.692 | V -0.597 | F -0.942 | T -0.95 | W -0.821 | N -0.562 | I -0.912 | K -0.509
K14: D 0.228 | N 0.019 | G -0.315 | T -0.113 | L 0.111 | M 0.016 | E 0.417 | S 0.174 | Y -0.068 | W -0.423 | H 0.524 | V 0.115 | R -0.217 | P 0.201 | Q 0.274
D9: R -0.018 | F -0.045 | G -0.057 | L -0.234 | A -0.128 | N -0.099 | T -0.047 | C -0.625 | Q 0.104 | K -0.083 | M 0.065 | P -0.863 | H -0.636 | Y -0.381 | W -0.14 | V -0.304 | S -0.02 | I -0.203
